Patent publication EP2871189A1, “High-affinity monoclonal anti-strep-tag antibody” (INSTITUT PASTEUR, priority 2013, dated 2015)

Target: Strep-Tag II peptide WSHPQFEK (SEQ ID NO:9)
Assay: ELISA assay after Friguet et al 1985

B1: monoclonal antibody C23.21 (antibody, V domains shown)
VH: EVQLEQSGPELVKPGASVKMSCKASGYTFTNYYMKWVKQSHGKSLEWIGDLNPNNGDTFYNQKFKGKATLTVDKSSNTAYMQLNSLTSEDSAVYYCARTGRYEENAMDYWGQGTSVTVSS
VL: ELVMTQSPASLAVSLGQRATISCRASESVDSYGKSFMHWYQLKPGQPPKLLIYRASNLESGVPARFSGSGSRTDFTLTIDPVEADDAATYYCQQNNEDPWTFGGGTKLEIK
For B1, which Kd is on record?
Its Kd is 0.14 nM.
